The target of this series is synthetic Tat (72 amino acids) carrying an N-terminal biotin label and an acetyl group at position 50.

B1: FLAG-tagged human SIRT2 (C-terminal FLAG tag) (protein)
chain: MAEPDPSHPLETQAGKVQEAQDSDSDSEGGAAGGEADMDFLRNLFSQTLSLGSQKERLLDELTLEGVARYMQSERCRRVICLVGAGISTSAGIPDFRSPSTGLYDNLEKYHLPYPEAIFEISYFKKHPEPFFALAKELYPGQFKPTICHYFMRLLKDKGLLLRCYTQNIDTLERIAGLEQEDLVEAHGTFYTSHCVSASCRHEYPLSWMKEKIFSEVTPKCEDCQSLVKPDIVFFGESLPARFFSCMQSDFLKVDLLLVMGTSLQVQPFASLISKAPLSTPRLLINKEKAGQSDPFLGMIMGLGGGMDFDSKKAYRDVAWLGECDQGCLALAELLGWKKELEDLVRREHASIDAQSGAGVPNPSTSASPKKSPPPAKDEARTTEREKPQ
Turning to B1, the “in vitro Tat deacetylation (western blot with antibodies specific for acetylated lysine 50 in Tat)” value (“in vitro Tat deacetylation” for short) is “resulted in deacetylation of Tat lysine 50”.

B2: FLAG-tagged human SIRT1 (C-terminal FLAG tag) (protein)
chain: MADEAALALQPGGSPSAAGADREAASSPAGEPLRKRPRRDGPGLERSPGEPGGAAPEREVPAAARGCPGAAAAALWREAEAEAAAAGGEQEAQATAAAGEGDNGPGLQGPSREPPLADNLYDEDDDDEGEEEEEAAAAAIGYRDNLLFGDEIITNGFHSCESDEEDRASHASSSDWTPRPRIGPYTFVQQHLMIGTDPRTILKDLLPETIPPPELDDMTLWQIVINILSEPPKRKKRKDINTIEDAVKLLQECKKIIVLTGAGVSVSCGIPDFRSRDGIYARLAVDFPDLPDPQAMFDIEYFRKDPRPFFKFAKEIYPGQFQPSLCHKFIALSDKEGKLLRNYTQNIDTLEQVAGIQRIIQCHGSFATASCLICKYKVDCEAVRGDIFNQVVPRCPRCPADEPLAIMKPEIVFFGENLPEQFHRAMKYDKDEVDLLIVIGSSLKVRPVALIPSSIPHEVPQILINREPLPHLHFDVELLGDCDVIINELCHRLGGEYAKLCCNPVKLSEITEKPPRTQKELAYLSELPPTPLHVSEDSSSPERTSPPDSSVIVTLLDQAAKSNDDLDVSESKGCMEEKPQEVQTSRNVESIAEQMENPDLKNVGSSTGEKNERTSVAGTVRKCWPNRVAKEQISRRLDGNQYLFLPPNRYIFHGAEVYSDSEDDVLSSSSCGSNSDSGTCQSPSLEEPMEDESEIEEFYNGLEDEPDVPERAGGAGFGTDGDDQEAINEAISVKQEVTDMNYPSNKS
As to B2, the “in vitro Tat deacetylation” value is “resulted in deacetylation of Tat lysine 50”.

B3: FLAG-tagged human SIRT3 (C-terminal FLAG tag) (protein)
chain: MAFWGWRAAAALRLWGRVVERVEAGGGVGPFQACGCRLVLGGRDDVSAGLRGSHGARGEPLDPARPLQRPPRPEVPRAFRRQPRAAAPSFFFSSIKGGRRSISFSVGASSVVGSGGSSDKGKLSLQDVAELIRARACQRVVVMVGAGISTPSGIPDFRSPGSGLYSNLQQYDLPYPEAIFELPFFFHNPKPFFTLAKELYPGNYKPNVTHYFLRLLHDKGLLLRLYTQNIDGLERVSGIPASKLVEAHGTFASATCTVCQRPFPGEDIRADVMADRVPRCPVCTGVVKPDIVFFGEPLPQRFLLHVVDFPMADLLLILGTSLEVEPFASLTEAVRSSVPRLLINRDLVGPLAWHPRSRDVAQLGDVVHGVESLVELLGWTEEMRDLVQRETGKLDGPDK
Turning to B3, the “in vitro Tat deacetylation” value is on record as “resulted in deacetylation of Tat lysine 50”.

The record behind these values is patent US20050287597.
